Test results as given in PMC2880568.

Biological target: T1, EloBC (elongin B - elongin C heterodimer), Q15370
T1 chain 1: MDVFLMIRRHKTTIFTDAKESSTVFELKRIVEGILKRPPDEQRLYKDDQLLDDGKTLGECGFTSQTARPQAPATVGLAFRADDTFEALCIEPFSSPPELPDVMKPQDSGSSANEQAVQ
T1 chain 2: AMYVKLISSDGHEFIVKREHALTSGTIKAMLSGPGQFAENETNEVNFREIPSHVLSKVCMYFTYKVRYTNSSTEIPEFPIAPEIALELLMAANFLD
Test: ITC

HNKVGSLQYLALAAL (domain or fragment, modifications not checked) [Vif BC-box protein]
Kd: 2200 nM
